B1: CpfC (coproporphyrin ferrochelatase) (Corynebacterium glutamicum ATCC 13032) (protein)
chain: MNERTSDAFDALLVLSFGGPEGHEEVRPFLENVTHGRGIPPERLDEVAVHYHHFGGISPINALNREIIANVEKELASRDHKLPVYFGNRNWKPFDNEAAEQMADDGVKNALVLATSAWGGYSGCRQYQEDIQGMIKHLESQGQSITFTKLRQFYDHPRFVSTMAQLVQDSYAKLPDELRDEARLVFTAHSIPLTADNAAGTPEDGSLYSTQVKEASALIAEAVGVSDFDVVWQSRSGSPHTPWLEPDIVDHAVELNEKGQKALVVCPVGFISDHMEVIWDLDSELMEEAEKRNMVVERVATVGPTDEFAALVVDLIEEAELKRVIERLGKLPARGSSVNGAPCGDGCCGTAKHKTARVNPNARSAAPAAN
notes: heterologously expressed in E. coli BL21, purified
B2: CpfC (coproporphyrin ferrochelatase) (Corynebacterium glutamicum ATCC 13032; E181G) (protein)
chain: MNERTSDAFDALLVLSFGGPEGHEEVRPFLENVTHGRGIPPERLDEVAVHYHHFGGISPINALNREIIANVEKELASRDHKLPVYFGNRNWKPFDNEAAEQMADDGVKNALVLATSAWGGYSGCRQYQEDIQGMIKHLESQGQSITFTKLRQFYDHPRFVSTMAQLVQDSYAKLPDELRDGARLVFTAHSIPLTADNAAGTPEDGSLYSTQVKEASALIAEAVGVSDFDVVWQSRSGSPHTPWLEPDIVDHAVELNEKGQKALVVCPVGFISDHMEVIWDLDSELMEEAEKRNMVVERVATVGPTDEFAALVVDLIEEAELKRVIERLGKLPARGSSVNGAPCGDGCCGTAKHKTARVNPNARSAAPAAN
notes: as for B1
B3: CpfC (coproporphyrin ferrochelatase) (Corynebacterium glutamicum ATCC 13032; T194S) (protein)
chain: MNERTSDAFDALLVLSFGGPEGHEEVRPFLENVTHGRGIPPERLDEVAVHYHHFGGISPINALNREIIANVEKELASRDHKLPVYFGNRNWKPFDNEAAEQMADDGVKNALVLATSAWGGYSGCRQYQEDIQGMIKHLESQGQSITFTKLRQFYDHPRFVSTMAQLVQDSYAKLPDELRDEARLVFTAHSIPLSADNAAGTPEDGSLYSTQVKEASALIAEAVGVSDFDVVWQSRSGSPHTPWLEPDIVDHAVELNEKGQKALVVCPVGFISDHMEVIWDLDSELMEEAEKRNMVVERVATVGPTDEFAALVVDLIEEAELKRVIERLGKLPARGSSVNGAPCGDGCCGTAKHKTARVNPNARSAAPAAN
notes: as for B1
B4: CpfC (coproporphyrin ferrochelatase) (Corynebacterium glutamicum ATCC 13032; E100D/E31V) (protein)
chain: MNERTSDAFDALLVLSFGGPEGHEEVRPFLVNVTHGRGIPPERLDEVAVHYHHFGGISPINALNREIIANVEKELASRDHKLPVYFGNRNWKPFDNEAADQMADDGVKNALVLATSAWGGYSGCRQYQEDIQGMIKHLESQGQSITFTKLRQFYDHPRFVSTMAQLVQDSYAKLPDELRDEARLVFTAHSIPLTADNAAGTPEDGSLYSTQVKEASALIAEAVGVSDFDVVWQSRSGSPHTPWLEPDIVDHAVELNEKGQKALVVCPVGFISDHMEVIWDLDSELMEEAEKRNMVVERVATVGPTDEFAALVVDLIEEAELKRVIERLGKLPARGSSVNGAPCGDGCCGTAKHKTARVNPNARSAAPAAN
notes: as for B1
B5: CpfC (coproporphyrin ferrochelatase) (Corynebacterium glutamicum ATCC 13032; E31V) (protein)
chain: MNERTSDAFDALLVLSFGGPEGHEEVRPFLVNVTHGRGIPPERLDEVAVHYHHFGGISPINALNREIIANVEKELASRDHKLPVYFGNRNWKPFDNEAAEQMADDGVKNALVLATSAWGGYSGCRQYQEDIQGMIKHLESQGQSITFTKLRQFYDHPRFVSTMAQLVQDSYAKLPDELRDEARLVFTAHSIPLTADNAAGTPEDGSLYSTQVKEASALIAEAVGVSDFDVVWQSRSGSPHTPWLEPDIVDHAVELNEKGQKALVVCPVGFISDHMEVIWDLDSELMEEAEKRNMVVERVATVGPTDEFAALVVDLIEEAELKRVIERLGKLPARGSSVNGAPCGDGCCGTAKHKTARVNPNARSAAPAAN
notes: as for B1
B6: CpfC (coproporphyrin ferrochelatase) (Corynebacterium glutamicum ATCC 13032; E100D) (protein)
chain: MNERTSDAFDALLVLSFGGPEGHEEVRPFLENVTHGRGIPPERLDEVAVHYHHFGGISPINALNREIIANVEKELASRDHKLPVYFGNRNWKPFDNEAADQMADDGVKNALVLATSAWGGYSGCRQYQEDIQGMIKHLESQGQSITFTKLRQFYDHPRFVSTMAQLVQDSYAKLPDELRDEARLVFTAHSIPLTADNAAGTPEDGSLYSTQVKEASALIAEAVGVSDFDVVWQSRSGSPHTPWLEPDIVDHAVELNEKGQKALVVCPVGFISDHMEVIWDLDSELMEEAEKRNMVVERVATVGPTDEFAALVVDLIEEAELKRVIERLGKLPARGSSVNGAPCGDGCCGTAKHKTARVNPNARSAAPAAN
notes: as for B1

Substrate: CC1=C(CCC(=O)O)c2cc3nc(cc4[nH]c(cc5[nH]c(cc1n2)c(C)c5CCC(=O)O)c(CCC(=O)O)c4C)C(CCC(=O)O)=C3C
Experiment: purified protein
Assay type: biochemical, Corynebacterium glutamicum
Conditions: ferrous ammonium sulfate 100 uM, Tris-HCl pH 8.0, 3.3% Tween 20, 5 mM glutathione, 30 °C

| Protein | Km | kcat | kcat/Km |
| --- | --- | --- | --- |
| B1 | 15.17 ± 1.84 × 10^-3 mM | 0.26 ± 0.09 s⁻¹ | 17430 ± 110 M⁻¹ s⁻¹ |
| B2 | 10.04 ± 1.52 × 10^-3 mM | 0.3 ± 0.04 s⁻¹ | 30600 ± 4310 M⁻¹ s⁻¹ |
| B3 | 11.63 ± 1.50 × 10^-3 mM | 0.32 ± 0.06 s⁻¹ | 27300 ± 4880 M⁻¹ s⁻¹ |
| B4 | 9.78 ± 0.82 × 10^-3 mM | 0.36 ± 0.04 s⁻¹ | 37000 ± 4520 M⁻¹ s⁻¹ |
| B5 | 8.26 ± 0.52 × 10^-3 mM | 0.43 ± 0.01 s⁻¹ | 52900 ± 1400 M⁻¹ s⁻¹ |
| B6 | 9.40 ± 1.50 × 10^-3 mM | 0.36 ± 0.06 s⁻¹ | 38100 ± 650 M⁻¹ s⁻¹ |
